From article PMC4847776, “Mutagenesis of mNeptune Red-Shifts Emission Spectrum to 681-685 nm” (PLoS ONE, 2016)
Changes are numbered by the printed parent chain. One block for each molecule: values may come before it.

Tests used:
Assay in all cases: SEC; Superdex 200 10/300 GL column, PBS (pH 7.4), protein approximate 3–4 mg/ml; elution volume compared with mNeptune (monomer standard) and eqFP670 (dimer standard)
eqFP670 = target: eqFP670
mNeptune681_Q159Y = target: mNeptune681_Q159Y
mNeptune681_Q159F = target: mNeptune681_Q159F
mNeptune681_Q159C = target: T1, mNeptune681_Q159C; settings: both partners purified
T1 chain: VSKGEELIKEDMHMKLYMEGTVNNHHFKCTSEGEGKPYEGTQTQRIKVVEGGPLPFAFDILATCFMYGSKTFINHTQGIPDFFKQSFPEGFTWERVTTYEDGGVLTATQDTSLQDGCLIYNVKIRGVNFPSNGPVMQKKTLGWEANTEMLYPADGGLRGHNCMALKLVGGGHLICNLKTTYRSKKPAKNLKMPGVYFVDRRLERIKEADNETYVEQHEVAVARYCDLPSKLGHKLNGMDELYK

mNeptune681_Q159T = target: T2, mNeptune681_Q159T; settings: both partners purified
T2 chain: T1 chain with C162T

mNeptune681_Q159V = target: T3, mNeptune681_Q159V; settings: both partners purified
T3 chain: T1 chain with C162V

mNeptune681_Q159I = target: T4, mNeptune681_Q159I; settings: both partners purified
T4 chain: T1 chain with C162I

mNeptune681_Q159M = target: T5, mNeptune681_Q159M; settings: both partners purified
T5 chain: T1 chain with C162M

mNeptune681_Q159L = target: T6, mNeptune681_Q159L; settings: both partners purified
T6 chain: T1 chain with C162L

mNeptune681_Q159W = target: T7, mNeptune681_Q159W; settings: both partners purified
T7 chain: T1 chain with C162W

stoichiometry N (eqFP670): 2
Molecule: eqFP670

stoichiometry N (mNeptune681_Q159Y): 2
Molecule: mNeptune681_Q159Y

stoichiometry N (mNeptune681_Q159F): 2
Molecule: mNeptune681_Q159F

stoichiometry N (mNeptune681_Q159C): 2
B1: mNeptune681_Q159C (other)
chain: T1 chain
modifications: autocatalytic Met-Tyr-Gly chromophore / autocatalytic Met-Tyr-Gly chromophore

stoichiometry N (mNeptune681_Q159T): 2
B2: mNeptune681_Q159T (other)
chain: T1 chain with C162T
modifications: autocatalytic Met-Tyr-Gly chromophore / autocatalytic Met-Tyr-Gly chromophore

stoichiometry N (mNeptune681_Q159V): 2
B3: mNeptune681_Q159V (other)
chain: T1 chain with C162V
modifications: autocatalytic Met-Tyr-Gly chromophore / autocatalytic Met-Tyr-Gly chromophore

stoichiometry N (mNeptune681_Q159I): 2
B4: mNeptune681_Q159I (other)
chain: T1 chain with C162I
modifications: autocatalytic Met-Tyr-Gly chromophore / autocatalytic Met-Tyr-Gly chromophore

stoichiometry N (mNeptune681_Q159M): 2
B5: mNeptune681_Q159M (other)
chain: T1 chain with C162M
modifications: autocatalytic Met-Tyr-Gly chromophore / autocatalytic Met-Tyr-Gly chromophore

stoichiometry N (mNeptune681_Q159L): 2
B6: mNeptune681_Q159L (other)
chain: T1 chain with C162L
modifications: autocatalytic Met-Tyr-Gly chromophore / autocatalytic Met-Tyr-Gly chromophore

stoichiometry N (mNeptune681_Q159W): 2
B7: mNeptune681_Q159W (other)
chain: T1 chain with C162W
modifications: autocatalytic Met-Tyr-Gly chromophore / autocatalytic Met-Tyr-Gly chromophore
